Data reported in patent US20110008351A1.

Columns and labels:
[1] = target: purified human properdin (human) (UniProt P27918); assay: ELISA, preformed C3bBbP on C3b-coated plates incubated with increasing IxAC-B1; bound properdin detected with anti-properdin antibody
[2] = target: purified human properdin (human) (UniProt P27918); assay: cell-based or functional assay
[3] = target: purified human properdin (human) (UniProt P27918); assay: ELISA, preformed C3bBbP on C3b-coated plates incubated with increasing IRAC II; bound properdin detected with anti-properdin antibody

purified human properdin (human), sequence (P27918 28-469 limits assumed): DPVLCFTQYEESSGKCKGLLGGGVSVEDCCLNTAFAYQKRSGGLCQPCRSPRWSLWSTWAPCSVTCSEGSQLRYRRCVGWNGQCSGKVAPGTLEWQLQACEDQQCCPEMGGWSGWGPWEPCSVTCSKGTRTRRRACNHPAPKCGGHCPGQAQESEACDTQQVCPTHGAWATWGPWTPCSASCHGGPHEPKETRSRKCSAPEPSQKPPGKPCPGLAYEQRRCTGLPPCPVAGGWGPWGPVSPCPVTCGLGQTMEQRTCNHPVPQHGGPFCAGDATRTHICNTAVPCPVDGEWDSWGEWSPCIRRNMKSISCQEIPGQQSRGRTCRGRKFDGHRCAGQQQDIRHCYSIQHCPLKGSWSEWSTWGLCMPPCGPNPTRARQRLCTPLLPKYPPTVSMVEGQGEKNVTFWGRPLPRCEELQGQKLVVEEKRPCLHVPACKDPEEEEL

Substance | percent of pre-bound properdin displaced [1] [%] | inhibition of alternative pathway haemolysis of rabbit red blood cells by human serum [2] [%] | percent of pre-bound properdin displaced [3] [%]
recombinant IxAC-B1-V5His | 50 | 85 | 
recombinant IxAC-B3-V5His |  | 85 | 
recombinant IxAC-B4-V5His |  | 85 | 
recombinant IRAC I-V5His (Ixodes ricinus anticomplement protein I) |  | 85 | 
recombinant IRAC II-V5His (Ixodes ricinus anticomplement protein II) |  | 85 | 50
recombinant IxAC-B2-V5His |  | 85 | 
recombinant IxAC-B5-V5His |  | 85 | 
